Measured values taken from patent US10752921B2, “Enzymes and methods for styrene synthesis” (Phytogene, Inc., priority 2012, dated 2020).

B1: K190C (protein, listed as Saccharomyces cerevisiae)
chain: MRKLNPALEFRDFIQVLKDEDDLIEITEEIDPNLEVGAIMRKAYESHLPAPLFKNLKGASKDLFSILGCPAGLRSKEKGDHGRIAHHLGLDPKTTIKEIIDYLLECKEKEPLPPITVPVSSAPCKTHILSEEKIHLQSLPTPYLHVSDGGKYLQTYGMWILQTPDKKWTNWSIARGMVVDDKHITGLVICPQHIRQIADSWAAIGKANEIPFALCFGVPPAAILVSSMPIPEGVSESDYVGAILGESVPVVKCETNDLMVPATSEMVFEGTLSLTDTHLEGPFGEMHGYVFKSQGHPCPLYTVKAMSYRDNAILPVSNPGLCTDETHTLIGSLVATEAKELAIESGLPILDAFMPYEAQALWLILKVDLKGLQALKTTPEEFCKKVGDIYFRTKVGFIVHEIILVADDIDIFNFKEVIWAYVTRHTPVADQMAFDDVTSFPLAPFVSQSSRSKTMKGGKCVTNCIFRQQYERSFDYITCNFEKGYPKGLVDKVNENWKRYGYK
B2: K190L (protein, listed as Saccharomyces cerevisiae)
chain: MRKLNPALEFRDFIQVLKDEDDLIEITEEIDPNLEVGAIMRKAYESHLPAPLFKNLKGASKDLFSILGCPAGLRSKEKGDHGRIAHHLGLDPKTTIKEIIDYLLECKEKEPLPPITVPVSSAPCKTHILSEEKIHLQSLPTPYLHVSDGGKYLQTYGMWILQTPDKKWTNWSIARGMVVDDKHITGLVILPQHIRQIADSWAAIGKANEIPFALCFGVPPAAILVSSMPIPEGVSESDYVGAILGESVPVVKCETNDLMVPATSEMVFEGTLSLTDTHLEGPFGEMHGYVFKSQGHPCPLYTVKAMSYRDNAILPVSNPGLCTDETHTLIGSLVATEAKELAIESGLPILDAFMPYEAQALWLILKVDLKGLQALKTTPEEFCKKVGDIYFRTKVGFIVHEIILVADDIDIFNFKEVIWAYVTRHTPVADQMAFDDVTSFPLAPFVSQSSRSKTMKGGKCVTNCIFRQQYERSFDYITCNFEKGYPKGLVDKVNENWKRYGYK
B3: K190D (protein, listed as Saccharomyces cerevisiae)
chain: MRKLNPALEFRDFIQVLKDEDDLIEITEEIDPNLEVGAIMRKAYESHLPAPLFKNLKGASKDLFSILGCPAGLRSKEKGDHGRIAHHLGLDPKTTIKEIIDYLLECKEKEPLPPITVPVSSAPCKTHILSEEKIHLQSLPTPYLHVSDGGKYLQTYGMWILQTPDKKWTNWSIARGMVVDDKHITGLVIDPQHIRQIADSWAAIGKANEIPFALCFGVPPAAILVSSMPIPEGVSESDYVGAILGESVPVVKCETNDLMVPATSEMVFEGTLSLTDTHLEGPFGEMHGYVFKSQGHPCPLYTVKAMSYRDNAILPVSNPGLCTDETHTLIGSLVATEAKELAIESGLPILDAFMPYEAQALWLILKVDLKGLQALKTTPEEFCKKVGDIYFRTKVGFIVHEIILVADDIDIFNFKEVIWAYVTRHTPVADQMAFDDVTSFPLAPFVSQSSRSKTMKGGKCVTNCIFRQQYERSFDYITCNFEKGYPKGLVDKVNENWKRYGYK
B4: K190V (protein, listed as Saccharomyces cerevisiae)
chain: MRKLNPALEFRDFIQVLKDEDDLIEITEEIDPNLEVGAIMRKAYESHLPAPLFKNLKGASKDLFSILGCPAGLRSKEKGDHGRIAHHLGLDPKTTIKEIIDYLLECKEKEPLPPITVPVSSAPCKTHILSEEKIHLQSLPTPYLHVSDGGKYLQTYGMWILQTPDKKWTNWSIARGMVVDDKHITGLVIVPQHIRQIADSWAAIGKANEIPFALCFGVPPAAILVSSMPIPEGVSESDYVGAILGESVPVVKCETNDLMVPATSEMVFEGTLSLTDTHLEGPFGEMHGYVFKSQGHPCPLYTVKAMSYRDNAILPVSNPGLCTDETHTLIGSLVATEAKELAIESGLPILDAFMPYEAQALWLILKVDLKGLQALKTTPEEFCKKVGDIYFRTKVGFIVHEIILVADDIDIFNFKEVIWAYVTRHTPVADQMAFDDVTSFPLAPFVSQSSRSKTMKGGKCVTNCIFRQQYERSFDYITCNFEKGYPKGLVDKVNENWKRYGYK
B5: K190N (protein, listed as Saccharomyces cerevisiae)
chain: MRKLNPALEFRDFIQVLKDEDDLIEITEEIDPNLEVGAIMRKAYESHLPAPLFKNLKGASKDLFSILGCPAGLRSKEKGDHGRIAHHLGLDPKTTIKEIIDYLLECKEKEPLPPITVPVSSAPCKTHILSEEKIHLQSLPTPYLHVSDGGKYLQTYGMWILQTPDKKWTNWSIARGMVVDDKHITGLVINPQHIRQIADSWAAIGKANEIPFALCFGVPPAAILVSSMPIPEGVSESDYVGAILGESVPVVKCETNDLMVPATSEMVFEGTLSLTDTHLEGPFGEMHGYVFKSQGHPCPLYTVKAMSYRDNAILPVSNPGLCTDETHTLIGSLVATEAKELAIESGLPILDAFMPYEAQALWLILKVDLKGLQALKTTPEEFCKKVGDIYFRTKVGFIVHEIILVADDIDIFNFKEVIWAYVTRHTPVADQMAFDDVTSFPLAPFVSQSSRSKTMKGGKCVTNCIFRQQYERSFDYITCNFEKGYPKGLVDKVNENWKRYGYK
B6: K190H (protein, listed as Saccharomyces cerevisiae)
chain: MRKLNPALEFRDFIQVLKDEDDLIEITEEIDPNLEVGAIMRKAYESHLPAPLFKNLKGASKDLFSILGCPAGLRSKEKGDHGRIAHHLGLDPKTTIKEIIDYLLECKEKEPLPPITVPVSSAPCKTHILSEEKIHLQSLPTPYLHVSDGGKYLQTYGMWILQTPDKKWTNWSIARGMVVDDKHITGLVIHPQHIRQIADSWAAIGKANEIPFALCFGVPPAAILVSSMPIPEGVSESDYVGAILGESVPVVKCETNDLMVPATSEMVFEGTLSLTDTHLEGPFGEMHGYVFKSQGHPCPLYTVKAMSYRDNAILPVSNPGLCTDETHTLIGSLVATEAKELAIESGLPILDAFMPYEAQALWLILKVDLKGLQALKTTPEEFCKKVGDIYFRTKVGFIVHEIILVADDIDIFNFKEVIWAYVTRHTPVADQMAFDDVTSFPLAPFVSQSSRSKTMKGGKCVTNCIFRQQYERSFDYITCNFEKGYPKGLVDKVNENWKRYGYK
B7: R1751 (protein, listed as Saccharomyces cerevisiae)
chain: MRKLNPALEFRDFIQVLKDEDDLIEITEEIDPNLEVGAIMRKAYESHLPAPLFKNLKGASKDLFSILGCPAGLRSKEKGDHGRIAHHLGLDPKTTIKEIIDYLLECKEKEPLPPITVPVSSAPCKTHILSEEKIHLQSLPTPYLHVSDGGKYLQTYGMWILQTPDKKWTNWSIAIGMVVDDKHITGLVIKPQHIRQIADSWAAIGKANEIPFALCFGVPPAAILVSSMPIPEGVSESDYVGAILGESVPVVKCETNDLMVPATSEMVFEGTLSLTDTHLEGPFGEMHGYVFKSQGHPCPLYTVKAMSYRDNAILPVSNPGLCTDETHTLIGSLVATEAKELAIESGLPILDAFMPYEAQALWLILKVDLKGLQALKTTPEEFCKKVGDIYFRTKVGFIVHEIILVADDIDIFNFKEVIWAYVTRHTPVADQMAFDDVTSFPLAPFVSQSSRSKTMKGGKCVTNCIFRQQYERSFDYITCNFEKGYPKGLVDKVNENWKRYGYK

test system: styrene production; experiment: Styrene production by FDC1 mutants from tCA (colorimetric screening, confirmed by HPLC); type: cell-based; settings: E. coli cells, tCA 1 g/L, 30° C. for 4 hours
Experimental: Saturation mutagenesis allows the change of one amino acid to 19 other alternative amino acid residues. […] The codon NNK has 32-fold degeneracy and encodes all 20 amino acids without rare codons. The QuikChange PCR products were examined by agarose gel electrophoresis and then 15 μl of PCR products were digested with 1 μl Dpnl (New England Biolabs) at 37° C. for 4 hours to remove the template plasmid. Aliquots of (2 μl) digestive products were transformed into BL21-Gold (DE3) competent cells (STRATAgene, CA) and inoculated on Luria-Bertani (LB) agar plates containing kanamycin. The quality of the library by DNA sequencing was confirmed. The library covers 90% of mutagenesis (17 mutants out of 19). To cover 100% (19 out of 19 mutant), we screened 150 mutants for each site.
The transformants (Example II.2) were inoculated in 96-well plates (NUNC, Roskilde, Denmark) containing 100 μl LB broth per well and incubated at 37° C., overnight. The cultures were then mixed with equal amount of 50% glycerol and stored at −80° C. as the master plate. An aliquot of 10 μl culture was inoculated in 2 ml deep-well plates (USA scientific) with 1 ml TB broth per well and incubated at 37° C. until the OD600 reached 1.0. The cultures were then induced by 0.2 mM IPTG and incubated at 18° C. for 20 hours with shaking at 250 rpm.
Cells were harvested and suspended with 0.25 ml PBS buffer at pH 7.0 and the substrate (tCA) was added at a final concentration of 1 g/L. The culture was incubated at 30° C. for 4 hours and the volatile product styrene was collected by using 96 well STRATA-X® reversed phase plate containing 10 mg polymer based resin (Phenomenex) on top of the culture plate (FIG. 19). To avoid styrene vapor diffusion, 96-square well silicone sealing mats with pre-slit were used between 96-well culture plate and 96 well STRATA-X® reversed phase plate. The product was collected by 200 μl propanol for each well and the amount of product was measured by colorimetric method.
Various chemicals were tested as an indicator for styrene detection, including NBP (4-nitrobenzyl-pyridine) as a preferred indicator. Styrene was mixed with cytochrome P450 BM-3 in 50 mM phosphate buffer pH 8.0. The styrene oxidation reaction was started by adding 0.2 mM NADPH, and the reaction mixture was incubated at room temperature for 5 minutes with shaking. The NBP solution was added to the mixture and incubated at room temperature for further 5 minutes with shaking which gives white precipitate. The tube or plate containing reaction mixtures were heated at 70° C. for 30 minutes and chilled on ice for 5 minutes. After adding Dimethylformamide (150 μl) and 25 μl of 1M K2CO3, the reaction mixture gave blue color that can be measured spectrophotometrically at 600 nm immediately. The […] of NBP reacts with the oxirane ring of styrene oxide to yield a blue chromophore a blue color that can be monitored spectrophotometrically at 600 nm.
The mutants showing higher activity were confirmed by HPLC using an ACQUITY UPLC BEH C18 column (1.7-μm, 2.1×50-mm, Waters, USA). The samples were resolved in 30% acetonitrile (A) with an increasing concentration gradient of acetonitrile (B) for 1 min, 95%; then to 1 min, 30%; at a flow rate of 1 ml/min. UV absorption was monitored at 254-, 280-, and 310-nm. The changed amino acid residues in the mutants showing the higher activity were confirmed by DNA sequence.

What does the source list for B1?
amount of styrene compared to that of wild type (in words): significantly higher amount of styrene; styrene produced compared to wild type: 3 times

For B2, which “amount of styrene compared to that of wild type (in words)” value is on record?
The value was “significantly higher amount of styrene”.

With B3 as the molecule, how does the “amount of styrene compared to that of wild type (in words)” value read?
The value was “significantly higher amount of styrene”.

What does the source list for B4?
amount of styrene compared to that of wild type (in words): significantly higher amount of styrene; styrene produced compared to wild type: 3 times

How did the “amount of styrene compared to that of wild type (in words)” value turn out when B5 was run?
The value was “significantly higher amount of styrene”.

For B6, which “amount of styrene compared to that of wild type (in words)” value is on record?
Its value is “significantly higher amount of styrene”.

Which results are given for B7?
amount of styrene compared to that of wild type (in words): significantly higher amount of styrene; styrene produced compared to wild type: 1.5 times
